Laboratory results taken from the domain aggregation screens of Martell et al. (2025).

Assay: soluble fraction after stress (log2 fold change); higher = more stays soluble; pooled small domains, quantitative proteomics
Details: stress: 75 degC
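Further: 20 min heating vs room temperature control held 20 min.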

Row | Sequence | soluble fraction (log2)
1 | HMGTTKGVVDVTVPNGRASQHVKLVVIDDDGGRVVYDGTNAPGDRIVKSVSGSGNVRVQIYLNNALVQEQS | -0.491
2 | HMGTTMLEVPNFVGEVFKEIDPEKYPNLRLVDSDYTYSNEYEAGKVISQDPVARTQVAEGSTVKLVIS | 0.319
3 | HMGTVISVDKARSIALAKVPGASANDIRIHLDRDDGRQIYEGEIYYNRMEYEFEIDASTGTIIEWSAEHW | -2.33
4 | HMGTVQSVDRALLLLSEIGREPGGLVDLSTRVRLATSTTGRILATLEHAGAVVRGDDGIYHIGPLVHGMVS | -2.04
5 | HMGTYSKQDLLQLIGRYPDGIGKREINLAFSKGTKIRNLLNIELNELLNERLITLSQGGLYIKP | -1.92
6 | HMGVAFAPVEKIKHTKTGNELYAVKLAGRVEAEVFGQLRQKAKEYDGYYSKFSRAFLFSTPEDAEAFRAE | -0.294
7 | HMGVDIAEHDGQPAVSIRKGAAESVAQWVKDQGGTFPQEVEMTVQNVARAGGTPLVVARGRDVLGVIYLKD | -0.0119
8 | HMGVDKLTPREREVLALMAQGASNREIEGKLVLTAGAVSKHVANVFMKLGFSPEDENRRVKAVLAWLRTK | -2.86
9 | HMGVGIEALAVEVDRIRQVLTGGGALSDIQLFSQLKALGEVKTALSSMTDPRARELEKRVAQLLEASLRT | -0.708
10 | HMGVKHKHKGAGELLAALRTMFPNSSVSTLRKMLTQGRVVLNGEVVHRAKHELTDGDTIEVLERQRAER | 0.0384
11 | HMGVKIELNENEQAIFAAMQKQVEAVLPDLRAQFADMSNKAWDNSVKTLTKNNLLKVSKEAEILFIRL | -0.939
12 | HMGVKTDKYYYQMATETRVNKHYGLSNQYIATLISEYPRSPLIPNASILSKKNNADLALIDQSINQR | -0.515
13 | HMGVLSPRQSQILALVAQGLGNREIAERLHIAPTTARDHVQAIMRRLNVNSRAAAAVMGVKLGLI | -1.92
14 | HMGVNEGVNKLFKTIQETPGKRMPYYALATDVPEKTIERWLKQLREEGKIEFKGSAKTGGYFVIDK | -0.000624
15 | HMGVRDIRIFERNNSFFVNAEIRGEAQLSVPITRTDYQLFKENKIDALSLVEKYYAEELNASNEMK | 0.234
16 | HMGVSLNELAYRRFKQALVTLSYKPGEYLNTAQVMNDLDMGRTPINQAIHRLANEGLLQVIPRKGVMVS | -2.24
17 | HMGVTDLFAVLGFPRSPWLDAEELKQRHHALMADEASANSSPTILNEARRTLQNPALRIRHFLALEFPDH | -0.425
18 | HMGVYDLIYLGYGINVEKEELVDQNISIIRRYANIFDPNGDIKGSTNPTYASNTAVLFNEAKFIIDGYD | -3.7
19 | HMGWQPDPLTTRERLVAELATQASNAQIAEQLHLSVRTVEGHLAHVYTKLGITTRRELPAALAGAR | -1.55
20 | HMGWTTPAGIAVGMDKSVLQDAYGKEDDTFQDKGILYYQYFVHPSRMSGLSFGIKNDKIVSITAYMD | -2.02
21 | HMGYDDLEPFDANGRLRWSDQELVLAFGRHRGATLRTLELNDPSYLRWLLSGNGPLEQQDIQRLEQILES | -1.55
22 | HMGYDLLFQQALGFHEQGRLNEAENIYRQILETAPNNPDILNLLGLIAQQKGLHAQAVDYFYQAIRL | -1.89
23 | HMGYDVAEVKFRLIKLLRDSKIGISGVEISERLGINRVTMTKYLNIFSAEGVIGEKNIGNVNLWFVYEGIE | -1.62
24 | HMGYQLSLEAQSQLKALGLTSEYITRILDEADNRQPIPGTSRTVYSLNGYQVEFSHSDQQVIRIARG | -1.14
25 | HMGYSDEIGEFIKKLRTENHLTQKEFADKYGVTYQAVSKWENGKNLPDMSLIKQMSEDFNIGIDELLDGEK | -0.00865
26 | HMGYTLDVAHGVTEDMNFSEAFATAREEVGPGGIFYWHGKPYGTYYENEWNAMDEEDKAEYWDAVGRTTA | 0.0888
27 | HMHANSDVEQLMQMGIQRLNFQRYSDALLIFNQIIENFPDYAEAWNKRATLHYLLGNLDKSIADIEQTLE | -2.45
28 | HMHAPIAELKKVFKEEFADQEVTVRQLAGSVLLSGNVKTAELRENLESVAKQFFPRVINNLKLI | -0.444
29 | HMHDAKAEIIRLSALLTEYQRSYYIDGHSQVSDLEYDRLFDRLVALETSHPELREADSPTQRV | -0.917
30 | HMHDAKTQLQEEAARRGLPAPVYTRIGQEGPDHAPRFRVRADVGPHQAEAVAGSLKLAQAEAARAILRQMP | 0.132
